B1: Hexokinase-1 (Homo sapiens), P19367 (parent)
chain: MIAAQLLAYYFTELKDDQVKKIDKYLYAMRLSDETLIDIMTRFRKEMKNGLSRDFNPTATVKMLPTFVRSIPDGSEKGDFIALDLGGSSFRILRVQVNHEKNQNVHMESEVYDTPENIVHGSGSQLFDHVAECLGDFMEKRKIKDKKLPVGFTFSFPCQQSKIDEAILITWTKRFKASGVEGADVVKLLNKAIKKRGDYDANIVAVVNDTVGTMMTCGYDDQHCEVGLIIGTGTNACYMEELRHIDLVEGDEGRMCINTEWGAFGDDGSLEDIRTEFDREIDRGSLNPGKQLFEKMVSGMYLGELVRLILVKMAKEGLLFEGRITPELLTRGKFNTSDVSAIEKNKEGLHNAKEILTRLGVEPSDDDCVSVQHVCTIVSFRSANLVAATLGAILNRLRDNKGTPRLRTTVGVDGSLYKTHPQYSRRFHKTLRRLVPDSDVRFLLSESGSGKGAAMVTAVAYRLAEQHRQIEETLAHFHLTKDMLLEVKKRMRAEMELGLRKQTHNNAVVKMLPSFVRRTPDGTENGDFLALDLGGTNFRVLLVKIRSGKKRTVEMHNKIYAIPIEIMQGTGEELFDHIVSCISDFLDYMGIKGPRMPLGFTFSFPCQQTSLDAGILITWTKGFKATDCVGHDVVTLLRDAIKRREEFDLDVVAVVNDTVGTMMTCAYEEPTCEVGLIVGTGSNACYMEEMKNVEMVEGDQGQMCINMEWGAFGDNGCLDDIRTHYDRLVDEYSLNAGKQRYEKMISGMYLGEIVRNILIDFTKKGFLFRGQISETLKTRGIFETKFLSQIESDRLALLQVRAILQQLGLNSTCDDSILVKTVCGVVSRRAAQLCGAGMAAVVDKIRENRGLDRLNVTVGVDGTLYKLHPHFSRIMHQTVKELSPKCNVSFLLSEDGSGKGAALITAVGVRLRTEASS
B2: Hexokinase-2 (Homo sapiens), P52789 (parent)
chain: MIASHLLAYFFTELNHDQVQKVDQYLYHMRLSDETLLEISKRFRKEMEKGLGATTHPTAAVKMLPTFVRSTPDGTEHGEFLALDLGGTNFRVLWVKVTDNGLQKVEMENQIYAIPEDIMRGSGTQLFDHIAECLANFMDKLQIKDKKLPLGFTFSFPCHQTKLDESFLVSWTKGFKSSGVEGRDVVALIRKAIQRRGDFDIDIVAVVNDTVGTMMTCGYDDHNCEIGLIVGTGSNACYMEEMRHIDMVEGDEGRMCINMEWGAFGDDGSLNDIRTEFDQEIDMGSLNPGKQLFEKMISGMYMGELVRLILVKMAKEELLFGGKLSPELLNTGRFETKDISDIEGEKDGIRKAREVLMRLGLDPTQEDCVATHRICQIVSTRSASLCAATLAAVLQRIKENKGEERLRSTIGVDGSVYKKHPHFAKRLHKTVRRLVPGCDVRFLRSEDGSGKGAAMVTAVAYRLADQHRARQKTLEHLQLSHDQLLEVKRRMKVEMERGLSKETHASAPVKMLPTYVCATPDGTEKGDFLALDLGGTNFRVLLVRVRNGKWGGVEMHNKIYAIPQEVMHGTGDELFDHIVQCIADFLEYMGMKGVSLPLGFTFSFPCQQNSLDESILLKWTKGFKASGCEGEDVVTLLKEAIHRREEFDLDVVAVVNDTVGTMMTCGFEDPHCEVGLIVGTGSNACYMEEMRNVELVEGEEGRMCVNMEWGAFGDNGCLDDFRTEFDVAVDELSLNPGKQRFEKMISGMYLGEIVRNILIDFTKRGLLFRGRISERLKTRGIFETKFLSQIESDCLALLQVRAILQHLGLESTCDDSIIVKEVCTVVARRAAQLCGAGMAAVVDRIRENRGLDALKVTVGVDGTLYKLHPHFAKVMHETVKDLAPKCDVSFLQSEDGSGKGAALITAVACRIREAGQR

Variants of: B1
Settings: with src_mouse Src

| Variant | effect of a mutation on the interaction |
| --- | --- |
| Y27F | with no effect |
| Y417F | with no effect |
| Y732F | disrupting interaction strength |

Variants of: B2
Settings: with src_mouse Src

| Variant | effect of a mutation on the interaction |
| --- | --- |
| Y686F | disrupting interaction strength |

From IntAct's records for PubMed 28054552
